The record followed here is patent US20220064329A1 (Novo Nordisk, published 2022).

First the molecules themselves.
T1: recombinant human activated Factor VII (FVIIa) (human, UniProt P08709 61-212; P08709 213-466, ten glutamate residues of the Gla domain may be gamma-carboxylated)
T1 construct: chains tethered by a disulfide bond; also called Factor VIIa; rFVIIa
T1 sequence 1: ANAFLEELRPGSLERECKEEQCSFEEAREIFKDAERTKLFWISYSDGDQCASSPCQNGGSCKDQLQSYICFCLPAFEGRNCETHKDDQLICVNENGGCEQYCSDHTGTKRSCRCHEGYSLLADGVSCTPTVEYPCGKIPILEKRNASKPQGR
T1 sequence 2: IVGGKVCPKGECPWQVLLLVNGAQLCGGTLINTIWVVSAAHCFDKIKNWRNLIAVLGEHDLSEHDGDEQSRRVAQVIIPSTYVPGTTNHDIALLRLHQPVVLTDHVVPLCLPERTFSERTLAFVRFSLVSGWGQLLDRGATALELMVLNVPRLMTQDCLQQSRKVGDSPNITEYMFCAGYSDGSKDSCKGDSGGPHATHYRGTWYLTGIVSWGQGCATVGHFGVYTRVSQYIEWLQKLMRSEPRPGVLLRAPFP

B1: VH SEQ ID NO 586 / VL SEQ ID NO 366 (antibody, IgG4, V domains shown)
VH: QVQLQESGPGLVKPSDTLSLTCAVSGYSISSDSAWSWIRQPPGKGLEWIGYIQYSGSTNYNPSLKSRVTMSVDTSKNQFSLKLSSVTALDTAVYYCARSVNYYGNSFAVGYWGQGTLVTVSS
VL: EIVLTQSPATLSLSPGERATLSCRASQGLSDYLAWYQQKPGEAPRLLIKYASQPATGIPARFSGSGSGTDFTLTISSLEPEDFAVYYCQNGHSFPLTFGQGTKLEIK
notes: humanized 11F2; IgG4 S228P/kappa
B2: VH SEQ ID NO 594 / VL SEQ ID NO 342 (antibody, IgG4, V domains shown)
VH: QVQLQESGPGLVKPSDTLSLTCAVSGYSISSDSAWSWIRQPPGKKLEWIGYIQYSGSTNYNPSLKSRVTMSVDTSKNQFSLKLSSVTALDTAVYYCARSVNYYGNSFAVGPWGQGTLVTVSS
VL: EIVLTQSPATLSLSPGERATLSCRASQGISDYLHWYQQKPGQAPRLLIKYTSQPATGIPARFSGSGSGRDFTLTISSLEPEDFAVYYCQNGHSFPLTFGAGTKLELK
notes: as for B1
B3: VH SEQ ID NO 586 / VL SEQ ID NO 486 (antibody, IgG4, V domains shown)
VH: QVQLQESGPGLVKPSDTLSLTCAVSGYSISSDSAWSWIRQPPGKGLEWIGYIQYSGSTNYNPSLKSRVTMSVDTSKNQFSLKLSSVTALDTAVYYCARSVNYYGNSFAVGYWGQGTLVTVSS
VL: EIVLTQSPATLSLSPGERATLSCRASQGVSDYLHWYQQKPGQAPRLLIKYASQPATGIPARFSGSGSGTDFTLTISSLEPEDFGVYYCQNGHSFPLTFGQGTKLEIK
notes: as for B1
B4: VH SEQ ID NO 594 / VL SEQ ID NO 350 (antibody, IgG4, V domains shown)
VH: QVQLQESGPGLVKPSDTLSLTCAVSGYSISSDSAWSWIRQPPGKKLEWIGYIQYSGSTNYNPSLKSRVTMSVDTSKNQFSLKLSSVTALDTAVYYCARSVNYYGNSFAVGPWGQGTLVTVSS
VL: EIVLTQSPATLSLSPGERATLSCRASQGISDYLHWYQQKPGQAPRLLIKYTSQPATGIPARFSGSGSGTDFTLTISSLEPEDFAVYYCQNGHSFPLTFGAGTKLELK
notes: as for B1
B5: VH SEQ ID NO 586 / VL SEQ ID NO 406 (antibody, IgG4, V domains shown)
VH: QVQLQESGPGLVKPSDTLSLTCAVSGYSISSDSAWSWIRQPPGKGLEWIGYIQYSGSTNYNPSLKSRVTMSVDTSKNQFSLKLSSVTALDTAVYYCARSVNYYGNSFAVGYWGQGTLVTVSS
VL: EIVLTQSPATLSLSPGERATLSCRASQGVSDYLAWYQQKPGQAPRLLIKYASQPATGIPARFSGSGSGTDFTLTISSLEPEDFAVYYCQNGHSFPLTFGAGTKLEIK
notes: as for B1
B6: VH SEQ ID NO 586 / VL SEQ ID NO 414 (antibody, IgG4, V domains shown)
VH: QVQLQESGPGLVKPSDTLSLTCAVSGYSISSDSAWSWIRQPPGKGLEWIGYIQYSGSTNYNPSLKSRVTMSVDTSKNQFSLKLSSVTALDTAVYYCARSVNYYGNSFAVGYWGQGTLVTVSS
VL: EIVLTQSPATLSLSPGERATLSCRASQGVSDYLAWYQQKPGQAPRLLIKYASQPATGIPARFSGSGSGTDFTLTISSLEPEDFAVYYCQNGHSFPLTFGQGTKLEIK
notes: as for B1
B7: VH SEQ ID NO 586 / VL SEQ ID NO 430 (antibody, IgG4, V domains shown)
VH: QVQLQESGPGLVKPSDTLSLTCAVSGYSISSDSAWSWIRQPPGKGLEWIGYIQYSGSTNYNPSLKSRVTMSVDTSKNQFSLKLSSVTALDTAVYYCARSVNYYGNSFAVGYWGQGTLVTVSS
VL: EIVLTQSPATLSLSPGERATLSCRASQGVSDYLAWYQQKPGQAPRLLIKYASQPATGIPARFSGSGSGTDFTLTISSLEPEDFGVYYCQNGHSFPLTFGQGTKLEIK
notes: as for B1
B8: VH SEQ ID NO 586 / VL SEQ ID NO 494 (antibody, IgG4, V domains shown)
VH: QVQLQESGPGLVKPSDTLSLTCAVSGYSISSDSAWSWIRQPPGKGLEWIGYIQYSGSTNYNPSLKSRVTMSVDTSKNQFSLKLSSVTALDTAVYYCARSVNYYGNSFAVGYWGQGTLVTVSS
VL: EIVLTQSPATLSLSPGERATLSCRASQGVSDYLHWYQQKPGQAPRLLIKYASQPATGIPARFSGSGSGTDFTLTISSLEPEDVAVYYCQNGHSFPLTFGQGTKLEIK
notes: as for B1
B9: VH SEQ ID NO 586 / VL SEQ ID NO 438 (antibody, IgG4, V domains shown)
VH: QVQLQESGPGLVKPSDTLSLTCAVSGYSISSDSAWSWIRQPPGKGLEWIGYIQYSGSTNYNPSLKSRVTMSVDTSKNQFSLKLSSVTALDTAVYYCARSVNYYGNSFAVGYWGQGTLVTVSS
VL: EIVLTQSPATLSLSPGERATLSCRASQGVSDYLAWYQQKPGQAPRLLIKYASQPATGIPARFSGSGSGTDFTLTISSLEPEDVAVYYCQNGHSFPLTFGQGTKLEIK
notes: as for B1
B10: VH SEQ ID NO 586 / VL SEQ ID NO 478 (antibody, IgG4, V domains shown)
VH: QVQLQESGPGLVKPSDTLSLTCAVSGYSISSDSAWSWIRQPPGKGLEWIGYIQYSGSTNYNPSLKSRVTMSVDTSKNQFSLKLSSVTALDTAVYYCARSVNYYGNSFAVGYWGQGTLVTVSS
VL: EIVLTQSPATLSLSPGERATLSCRASQGVSDYLHWYQQKPGQAPRLLIKYASQPATGIPARFSGSGSGTDFTLTISSLEPEDFAVYYCQQGHSFPLTFGQGTKLEIK
notes: as for B1
B11: VH SEQ ID NO 594 / VL SEQ ID NO 318 (antibody, IgG4, V domains shown)
VH: QVQLQESGPGLVKPSDTLSLTCAVSGYSISSDSAWSWIRQPPGKKLEWIGYIQYSGSTNYNPSLKSRVTMSVDTSKNQFSLKLSSVTALDTAVYYCARSVNYYGNSFAVGPWGQGTLVTVSS
VL: EIVLTQSPATLSLSPGERATLSCRASQGISDYLHWYQQKPGEAPRLLIKYTSQPATGIPARFSGSGSGTDFTLTISSLEPEDFAVYYCQNGHSFPLTFGQGTKLEIK
notes: as for B1
B12: VH SEQ ID NO 586 / VL SEQ ID NO 502 (antibody, IgG4, V domains shown)
VH: QVQLQESGPGLVKPSDTLSLTCAVSGYSISSDSAWSWIRQPPGKGLEWIGYIQYSGSTNYNPSLKSRVTMSVDTSKNQFSLKLSSVTALDTAVYYCARSVNYYGNSFAVGYWGQGTLVTVSS
VL: EIVLTQSPATLSLSPGERATLSCRASQGVSDYLHWYQQKPGQAPRLLIKYTSQPATGIPARFSGSGSGTDFTLTISSLEPEDFAVYYCQNGHSFPLTFGQGTKLEIK
notes: as for B1
B13: VH SEQ ID NO 586 / VL SEQ ID NO 462 (antibody, IgG4, V domains shown)
VH: QVQLQESGPGLVKPSDTLSLTCAVSGYSISSDSAWSWIRQPPGKGLEWIGYIQYSGSTNYNPSLKSRVTMSVDTSKNQFSLKLSSVTALDTAVYYCARSVNYYGNSFAVGYWGQGTLVTVSS
VL: EIVLTQSPATLSLSPGERATLSCRASQGVSDYLHWYQQKPGQAPRLLIKYASQPATGIPARFSGSGSGTDFTLTISSLEPEDFAVYYCQNGHSFPLTFGAGTKLEIK
notes: as for B1
B14: VH SEQ ID NO 594 / VL SEQ ID NO 358 (antibody, IgG4, V domains shown)
VH: QVQLQESGPGLVKPSDTLSLTCAVSGYSISSDSAWSWIRQPPGKKLEWIGYIQYSGSTNYNPSLKSRVTMSVDTSKNQFSLKLSSVTALDTAVYYCARSVNYYGNSFAVGPWGQGTLVTVSS
VL: EIVLTQSPATLSLSPGERATLSCRASQGISDYLHWYQQKPGQAPRLLIKYTSQPATGIPARFSGSGSGTDFTLTISSLEPEDFAVYYCQNGHSFPLTFGQGTKLEIK
notes: as for B1
B15: VH SEQ ID NO 586 / VL SEQ ID NO 454 (antibody, IgG4, V domains shown)
VH: QVQLQESGPGLVKPSDTLSLTCAVSGYSISSDSAWSWIRQPPGKGLEWIGYIQYSGSTNYNPSLKSRVTMSVDTSKNQFSLKLSSVTALDTAVYYCARSVNYYGNSFAVGYWGQGTLVTVSS
VL: EIVLTQSPATLSLSPGERATLSCRASQGVSDYLHWYQQKPGEAPRLLIKYASQPATGIPARFSGSGSGTDFTLTISSLEPEDFAVYYCQNGHSFPLTFGQGTKLEIK
notes: as for B1
B16: VH SEQ ID NO 594 / VL SEQ ID NO 326 (antibody, IgG4, V domains shown)
VH: QVQLQESGPGLVKPSDTLSLTCAVSGYSISSDSAWSWIRQPPGKKLEWIGYIQYSGSTNYNPSLKSRVTMSVDTSKNQFSLKLSSVTALDTAVYYCARSVNYYGNSFAVGPWGQGTLVTVSS
VL: EIVLTQSPATLSLSPGERATLSCRASQGISDYLHWYQQKPGEAPRLLIKYTSQPATGIPARFSGSGSGTDFTLTISSLEPEDFGVYYCQNGHSFPLTFGAGTKLELK
notes: as for B1
B17: VH SEQ ID NO 586 / VL SEQ ID NO 390 (antibody, IgG4, V domains shown)
VH: QVQLQESGPGLVKPSDTLSLTCAVSGYSISSDSAWSWIRQPPGKGLEWIGYIQYSGSTNYNPSLKSRVTMSVDTSKNQFSLKLSSVTALDTAVYYCARSVNYYGNSFAVGYWGQGTLVTVSS
VL: EIVLTQSPATLSLSPGERATLSCRASQGVSDYLAWYQQKPGEAPRLLIKYASQPATGIPARFSGSGSGTDFTLTISSLEPEDFAVYYCQNGHSFPLTFGQGTKLEIK
notes: as for B1
B18: VH SEQ ID NO 586 / VL SEQ ID NO 382 (antibody, IgG4, V domains shown)
VH: QVQLQESGPGLVKPSDTLSLTCAVSGYSISSDSAWSWIRQPPGKGLEWIGYIQYSGSTNYNPSLKSRVTMSVDTSKNQFSLKLSSVTALDTAVYYCARSVNYYGNSFAVGYWGQGTLVTVSS
VL: EIVLTQSPATLSLSPGERATLSCRASQGLSDYLHWYQQKPGEAPRLLIKYASQPATGIPARFSGSGSGTDFTLTISSLEPEDFAVYYCQNGHSFPLTFGQGTKLEIK
notes: as for B1
B19: VH SEQ ID NO 586 / VL SEQ ID NO 470 (antibody, IgG4, V domains shown)
VH: QVQLQESGPGLVKPSDTLSLTCAVSGYSISSDSAWSWIRQPPGKGLEWIGYIQYSGSTNYNPSLKSRVTMSVDTSKNQFSLKLSSVTALDTAVYYCARSVNYYGNSFAVGYWGQGTLVTVSS
VL: EIVLTQSPATLSLSPGERATLSCRASQGVSDYLHWYQQKPGQAPRLLIKYASQPATGIPARFSGSGSGTDFTLTISSLEPEDFAVYYCQNGHSFPLTFGQGTKLEIK
notes: as for B1
B20: VH SEQ ID NO 594 / VL SEQ ID NO 334 (antibody, IgG4, V domains shown)
VH: QVQLQESGPGLVKPSDTLSLTCAVSGYSISSDSAWSWIRQPPGKKLEWIGYIQYSGSTNYNPSLKSRVTMSVDTSKNQFSLKLSSVTALDTAVYYCARSVNYYGNSFAVGPWGQGTLVTVSS
VL: EIVLTQSPATLSLSPGERATLSCRASQGISDYLHWYQQKPGQAPRLLIKYASQPATGIPARFSGSGSGTDFTLTISSLEPEDFAVYYCQNGHSFPLTFGQGTKLEIK
notes: as for B1

The target in this assay is T1, recombinant human activated Factor VII …. The assay is described as follows: BLI (Fortebio).
Broadly, the Kd is the equilibrium constant for the complex coming apart. As for B1, the Kd came to 21 nM.
With B2, the Kd came out at 120 nM.
Turning to B3, the Kd is 18 nM.
The same measure for B4: 34 nM.
Consider B5, for which the Kd amounted to 19 nM.
Turning to B6, the Kd came to 25 nM.
Turning to B7, the Kd was determined as 13 nM.
In the case of B8, the Kd is 17 nM.
As for B9, the Kd was found to be 23 nM.
With B10, the Kd is 27 nM.
B11: the dissociation constant (Kd) is 23 nM.
As for B12, the Kd worked out at 15 nM.
Take B13: the Kd was 18 nM.
B14: the Kd is 24 nM.
The same measure for B15: 16 nM; for B16: 22 nM.
For B17, the Kd was 38 nM.
The figure for B18 is 17 nM; for B19 it is 15 nM.
In the case of B20, the Kd was found to be 32 nM.
